{"source": "paper PMC12694110", "about": "“A Multidrug and Toxic Compound Extrusion Transporter, RgMATE6, Facilitates Vacuolar Transport of Acteoside in Rehmannia glutinosa” (Plants, 2025)", "proteins": {"B1": {"name": "RgMATE6 (Rehmannia glutinosa) (protein)", "chain": "MEDNSKQPLLSYEEEEEEDQVPDLVSVPSRFSFQRLSNFSFFSSFVADDEDIAPIETFSEFMSAFKDESGKLWFLAGPAIFTSLCQYSLGAFTQTFAGHVGTLELAAFSSVIAGLSLGVMLGMGSAVETLCGQAFGAGQHDMLGIYLQRSWIILLATGFILMFLYIFALPFLLVIGQTESISRVAGKLALWMIPQLFAYALNFPTAKFLQAQSKIMAMAWISAAGLGLHVLFSWLLMLKLGWGMAGGAAVLDGSWWFIVIAQLIYIFSGTCGKAWPGFSLRAFSNLWGFVRLSVASAVMMCLETWYFMALVLFAGYLKDAEVAVAALSVCTNILGWTNTIAVGFNAAISVRVSNELGASRPRTAKFSVVVMVISAFLIGLIVSILLLIFQDQYPSLFSDSLDVKQVVYELTPLLAFSIVVNSIQPALSGVAIGAGWQALIAYVNIVCYYVFGVPLGLILGYPLNMGVKGIWYGMVAGTVLQTLILFWIVYRTDWNKEASIAAKRIKYWRGEAEAAKSKGLGEIK", "notes": "full-length ORF (524 residues, 12 TM helices), C-terminal GFP fusion (pBI121-RgMATE6-GFP), transiently expressed in Nicotiana benthamiana mesophyll protoplasts; vacuolar membrane vesicles"}}, "key": {"[1]": {"substrate": "C[C@@H]1O[C@@H](O[C@@H]2[C@@H](O)[C@H](OCCc3ccc(O)c(O)c3)O[C@H](COC(=O)/C=C/c3ccc(O)c(O)c3)[C@H]2O)[C@H](O)[C@H](O)[C@H]1O", "assay": "uptake into vacuolar membrane vesicles, HPLC, Lineweaver-Burk", "assay_type": "biochemical, Rehmannia glutinosa", "settings": "vesicles from transfected N. benthamiana protoplasts, 25 mM Tris-MES pH 8.0, 0.4 M sorbitol, 0.1% BSA, 25 °C, 20 min, substrate 20–120 μM"}, "[2]": {"substrate": "C[C@@H]1O[C@@H](O[C@@H]2[C@@H](O)[C@H](OCCc3ccc(O)c(O)c3)O[C@H](CO)[C@H]2OC(=O)/C=C/c2ccc(O)c(O)c2)[C@H](O)[C@H](O)[C@H]1O", "assay": "uptake into vacuolar membrane vesicles, HPLC, Lineweaver-Burk", "assay_type": "biochemical, Rehmannia glutinosa", "settings": "vesicles from transfected N. benthamiana protoplasts, 25 mM Tris-MES pH 8.0, 0.4 M sorbitol, 0.1% BSA, 25 °C, 20 min, substrate 20–120 μM"}}}
{"protein": "B1", "values": [{"measurement": "Km", "setting": "[1]", "value": 121.98, "unit": "µM"}, {"measurement": "Km", "setting": "[2]", "value": 35.59, "unit": "µM"}]}
